The conditions of the data set: Bos taurus, pH 8, Thermal, DSC, Tris 10 mM, whole UniProt chain shown.

A word on the Tm: it is the temperature at which the thermal transition is half complete.

B1: Alpha-lactalbumin wild type, P00711 (protein)
chain: MMSFVSLLLVGILFHATQAEQLTKCEVFRELKDLKGYGGVSLPEWVCTTFHTSGYDTQAIVQNNDSTEYGLFQINNKIWCKDDQNPHSSNICNISCDKFLDDDLTDDIMCVKKILDKVGINYWLAHKALCSEKLDQWLCEKL
Turning to B1, the Tm reads like this: (CaCl2 0.0 mM) 64.1 °C; (CaCl2 0.1 mM) 65.2 °C; (CaCl2 1.0 mM) 67.9 °C; (CaCl2 2.0 mM) 68.9 °C; (CaCl2 10.0 mM) 70 °C. The “unfolding enthalpy (calorimetric)” value (CaCl2 0.0 mM) was 64.8 kcal/mol; the “unfolding enthalpy (calorimetric)” value (CaCl2 0.1 mM) was 71.1 kcal/mol; the “unfolding enthalpy (calorimetric)” value (CaCl2 1.0 mM) was determined as 75.6 kcal/mol; the “unfolding enthalpy (calorimetric)” value (CaCl2 2.0 mM) was determined as 76 kcal/mol; the “unfolding enthalpy (calorimetric)” value (CaCl2 10.0 mM) was determined as 75 kcal/mol.
